Common to all, as to type: cell-based
The target in assay [1] is T1, hCCR7 (CHO-flpin-hCCR7 cells) (Homo sapiens, UniProt P32248).
T1 construct: host or cells: CHO (CHO-flpin), doxycycline-induced
T1 sequence (P32248 25-378): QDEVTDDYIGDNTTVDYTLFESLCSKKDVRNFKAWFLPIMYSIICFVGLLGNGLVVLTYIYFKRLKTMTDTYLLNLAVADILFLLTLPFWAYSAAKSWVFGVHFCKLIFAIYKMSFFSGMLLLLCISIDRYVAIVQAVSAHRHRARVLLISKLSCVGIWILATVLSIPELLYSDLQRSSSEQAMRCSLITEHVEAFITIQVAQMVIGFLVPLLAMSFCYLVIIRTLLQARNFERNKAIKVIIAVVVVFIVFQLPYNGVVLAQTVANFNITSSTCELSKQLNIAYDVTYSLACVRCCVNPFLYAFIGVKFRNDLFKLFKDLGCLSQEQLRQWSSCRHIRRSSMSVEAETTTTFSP
Put plainly: β-Arrestin assay (PathHunter), antagonistic mode. The following applies: parental anti-CCR7 antibodies; hCCL19 as ligand; FIGS. 4B, 4C. On the procedure: To determine functionality of the anti-CCR7 antibodies, the β-Arrestin assay was performed using the PathHunter Flash Detection Kit from DiscoverX (#93-0247) either in agonistic mode for assessment of agonistic function or antagonistic mode for assessment of antagonistic function.
In the antagonistic mode, CHO-flpin-hCCR7 cells were seeded as described above. The next day, a 6× working solution (0.5 μM×6=3.0 μM) in 1× assay buffer was made for each test antibody or positive control MAB197 (R&D reference antibody; ligand antagonist) or negative control hIgG. 5 μl of the 6× working solution of antibodies or controls were added to each well, briefly spun down, and incubated at 37° C./5% CO2 for 30 min. During incubation, serial dilutions of a 6× working solution in 1× assay buffer were made for hCCL19. Following incubation, 5 μl of the 6× working solution of hCCL19 were added to each well, briefly spun down, and incubated at 37° C./5% CO2 for 90 min. Following incubation, 25 μl of detection reagent were added to each well, incubated at room temperature in the dark while shaking for 20 min. Then, the luminescence signal for enzyme activity was measured on the Envision machine and analyzed in Excel.

Assay [2] deals with CCR7 and CD20 expressing JVM2 cells. Put plainly: surrogate ADCC reporter assay. The following applies: JVM2 target cells and Jurkat-V158 effector cells. On the procedure:
Capacity of candidate antibodies to mediate ADCC was assessed using a surrogate ADCC reporter assay. CCR7 and CD20 expressing JVM2 cells were used as target cells. JVM2 cells were washed and re-suspended at 8×10^4 cells/ml cells/ml. Effector cells in this assay were a Jurkat cell line stably expressing CD16V158 and an NFAT dependent luciferase reporter (Jurkat-V158); expression of luciferase is a surrogate for canonical ADCC signaling through CD16. Briefly, Jurkat-V158 cells grown in suspension were spun down to remove spent media, the pellet was resuspended in assay media and adjusted to 1.6x10^6 cells/ml cells/mL. Mix equal volumes of effector and target cells to make a master mix of cells yielding a target to effector cell ratio of 1:5 or 1:20. A titration of antibody was diluted in assay media with a final top concentration of 50 ug/mL in the assay well. 12.5 uL of Ab solution was added to a 384 well round bottom plate and then 12.5 ul of the master cell mix was added. Antibody and cells were mixed well by pipetting and incubated for 4 hours at 37° C. in 5% CO2. Following incubation, 15 uL of Bright Glo substrate (Promega #G7572) was added to each well and shaken for 5 min at RT at 1050 rpm. Luminescent signal was read on the Envision plate reader (Perkin Elmer).

A further assay has as its system CML-T1. Put plainly: ADC cell viability assay (CellTiter-Glo, four days). The following applies: CML-T1 (T cell leukemia); CCR7 receptor levels ~29,000. The procedure:
(§1) Cytotoxic effects after binding of directly conjugated antibodies (ADCs) with various payloads and their internalization into CCR7(+) cells were studied by assessing cell viability after four days of treatment. Three fold dilutions of the ADCs were added to 384-well bottom white plates in triplicates ([…]). […] Cells were harvested (adherent cells were detached with Accutase) and resuspended to approximately 2×10^4cells/ml. Cells were added to 384-well plates on top of the antibody (20 μl/well). The plates were incubated for four days at 37° C. and 5% CO2. Subsequently, 20 μl/well of CellTiter-Glo solution (CellTiter-Glo® Luminescent Cell Viability Assay; Promega, #G7571) was prepared and added to the cells. Cell viability was determined by the luminescence signal, which was measured after 10 min of incubation at 22° C. and 400 rpm with the Envision reader. IC50 values were calculated using the Graphpad Prism software.
(§2) To assess the ADCs for target-specificity and receptor-level dependency, ADC activity was tested across cell lines with different CCR7 receptor levels. […] Cell lines were chosen based on similar sensitivity to payload.

The subject of another assay is SR786. Described as above. The following applies: SR786 (Anaplastic large T cell lymphoma); CCR7 receptor levels ~28,000. The procedure:
as §1, §2

In the next assay the test system is DND-41. Described as above. The settings on record: DND-41 (T cell leukemia); CCR7 receptor levels 1,700. The procedure: as §1, §2
For the next assay, the system named is DEL. The assay is described as above. The following applies: DEL (ALCL); CCR7 receptor levels ~100,000; Table 19. The procedure: as §1
A further assay has as its system KE97. The assay is described as above. The following applies: KE97 (Multiple Myeloma); CCR7 receptor levels ~100,000; Table 19. On the procedure: as §1

B1: 674J13 Parental: parental anti-CCR7 antibody derived from the hybridoma (antibody, V domains shown)
VH: DVQLQESGPDLVKPSQSLSLTCTVTGYSITSGYSWHWIRQFPGNKLEWMAHIHSSGSTNYNPSLKSRISIIRDTSKNLFFLQLNSVTTEDTATYYCARGGVQAFAYWGQGTLVTVSA
VL: QIVLTQSPAIMSASPGEKVTMTCSASSSVIYMHWYQQKSGTSPKRWIYDTSKLASGVPARFSGSGSGTSYSLTISSMEAEDAATYYCQQWSSNPLTFGAGTTLELK
Regarding B1, the “functionality in β-Arrestin assay, antagonistic format” value in assay [1] is reported as “neutral, non-ligand blocking antibody”.

B2: 121G12 humanized CysMab: humanized anti-CCR7 IgG1 antibody with cysteine mutations, wild type Fc (antibody, V domains shown)
VH: EVQLVESGGGLVKPGGSLRLSCAASGFTFSTYAMSWVRQAPGKGLEWVATISDAGSYSYYPDNVKGRFTISRDNAKNSLYLQMNSLRAEDTAVYYCARRGSRYEEYYVMDYWGQGTTVTVSS
VL: EIVLTQSPATLSVSPGERVTLSCRASQSISNNLHWYQQKPGQAPRLLIKYASQSISGIPARFSGSGSGTDFTLTISSVEPEDFGVYFCQQSSSWLTFGQGTKLEIK
As for B2, the “ADCC activity; IC50 (nM)” value in assay [2] is on record as “Yes, but insufficient curve fitting”.

B3: 674J13.CysMab.DAPA.AURIX2 (conjugate)
heavy: DVQLQESGPGLVKPSQTLSLTCTVSGYSITSGYSWHWIRQHPGKGLEWMAHIHSSGSTNYNPSLKSRITISRDTSKNQFSLKLSSVTAADTAVYYCARGGVQAFAYWGQGTLVTVSSASTKGPSVFPLAPSSKSTSGGTAALGCLVKDYFPCPVTVSWNSGALTSGVHTFPAVLQSSGLYSLSSVVTVPSSSLGTQTYICNVNHKPSNTKVDKRVEPKSCDKTHTCPPCPAPELLGGPSVFLFPPKPKDTLMISRTPEVTCVVVAVSHEDPEVKFNWYVDGVEVHNAKTKPREEQYNSTYRVVSVLTVLHQDWLNGKEYKCKVSNKALAAPIEKTISKAKGQPREPQVYTLPPSREEMTKNQVSLTCLVKGFYPCDIAVEWESNGQPENNYKTTPPVLDSDGSFFLYSKLTVDKSRWQQGNVFSCSVMHEALHNHYTQKSLSLSPGK
light: EIVLTQSPATLSASPGERVTMSCSASSSVIYMHWYQQKPGQAPRRWIYDTSKLASGVPARFSGSGSGTDYTLTISSMEPEDAAVYYCQQWSSNPLTFGQGTKLEIKRTVAAPSVFIFPPSDEQLKSGTASVVCLLNNFYPREAKVQWKVDNALQSGNSQESVTEQDSKDSTYSLSSTLTLSKADYEKHKVYACEVTHQGLSSPVTKSFNRGEC
Turning to B3, the AMAX result is listed as “(60% AMAX)” in the assay with CML-T1; “(90% AMAX)” in the assay with SR786; less than 20% AMAX with DND-41; “(>95% AMAX)” in the assay with DEL; “(>95% AMAX)” in the assay with KE97.

The record behind these values is patent US11634497B2, “Anti-CCR7 antibody drug conjugates” (NOVARTIS AG, priority 2017, dated 2023).
